The data set deals with the molecule itself. Put plainly: cryo-EM structure; single-particle cryo-EM of the purified channel in 0.02% GDN, 150 mM KCl, 50 mM TRIS pH 7.5; C4 symmetry imposed.

B1: Shaker-IR-I384R (natural protein, UniProt P08510 1-655, looked up)
chain: MAAVALREQQLQRNSLDGYGSLPKLSSQDEEGGAGHGFGGGPQHFEPIPHDHDFCERVVINVSGLRFETQLRTLNQFPDTLLGDPARRLRYFDPLRNEYFFDRSRPSFDAILYYYQSGGRLRRPVNVPLDVFSEEIKFYELGDQAINKFREDEGFIKEEERPLPDNEKQRKVWLLFEYPESSQAARVVAIISVFVILLSIVIFCLETLPEFKHYKVFNTTTNGTKIEEDEVPDITDPFFLIETLCIIWFTFELTVRFLACPNKLNFCRDVMNVIDIIAIIPYFITLATVVAEEEDTLNLPKAPVSPQDKSSNQAMSLAILRVIRLVRVFRIFKLSRHSKGLQRLGRTLKASMRELGLLIFFLFIGVVLFSSAVYFAEAGSENSFFKSIPDAFWWAVVTMTTVGYGDMTPVGVWGKIVGSLCAIAGVLTIALPVPVIVSNFNYFYHRETDQEEMQSQNFNHVTSCPYLPGTLGQHMKKSSLSESSSDMMDLDDGVESTPGLTETHPGRSAVAPFLGAQQQQQQPVASSLSMSIDKQLQHPLQQLTQTQLYQQQQQQQQQQQNGFKQQQQQTQQQLQQQQSHTINASAAAATSGSGSSGLTMRHNNALAVSIETDV
notes: built on the Shaker-IR model PDB 7SIP; The C-terminal HRV 3C site was cut to release the channel from the beads, so residues of the site may remain; also called uncoupled channel; completely uncoupled I384R mutant; not shown: eGFP, C-terminal, cleaved; 8xHis, C-terminal, cleaved
As usually defined, the stoichiometry N is the number of molecules, sites or subunits per partner or assembly. In the case of B1, the “stoichiometry N” value was 4.

Source of the values: paper doi:10.1101/2025.03.17.643777, “Closed State Structure of the Pore Revealed by Uncoupled Shaker K^+ Channel” (bioRxiv, 2025).
